This note sets out measurements from US20220098307A1 (WUHAN YZY BIOPHARMA, published 2022).

Where a chain is given by its changes, count along the chain named. Names may count otherwise.

To fix the notation:
T1: human CEA (human, UniProt P06731 35-685)
T1 sequence: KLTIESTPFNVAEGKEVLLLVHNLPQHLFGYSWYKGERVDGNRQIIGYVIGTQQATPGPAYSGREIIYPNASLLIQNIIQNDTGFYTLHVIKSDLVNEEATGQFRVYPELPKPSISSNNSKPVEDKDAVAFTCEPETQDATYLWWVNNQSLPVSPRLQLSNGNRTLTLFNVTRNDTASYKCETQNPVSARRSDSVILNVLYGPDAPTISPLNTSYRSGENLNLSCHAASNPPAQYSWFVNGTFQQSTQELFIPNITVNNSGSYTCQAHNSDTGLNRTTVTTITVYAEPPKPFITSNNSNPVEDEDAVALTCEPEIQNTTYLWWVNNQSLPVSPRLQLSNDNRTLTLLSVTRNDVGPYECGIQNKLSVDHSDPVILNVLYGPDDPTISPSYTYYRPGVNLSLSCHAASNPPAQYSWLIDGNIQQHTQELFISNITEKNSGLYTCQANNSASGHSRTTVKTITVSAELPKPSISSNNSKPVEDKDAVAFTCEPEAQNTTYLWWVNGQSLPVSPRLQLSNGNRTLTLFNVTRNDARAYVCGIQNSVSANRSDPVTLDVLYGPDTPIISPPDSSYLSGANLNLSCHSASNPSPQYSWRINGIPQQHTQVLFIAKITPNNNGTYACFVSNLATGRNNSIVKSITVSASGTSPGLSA

B1: M1IC-DG2-1 (bispecific antibody, human IgG1, kappa)
chain: QVQLVESGGGVVQPGRSLRLSCAASGFTFSTYAMNWVRQAPGKGLEWVARIRSKYNNYATYYADSVKDRFTISRDDSKNTLYLQMNSLRAEDTAVYYCARHGNFGNSYVSWFAYWGQGTLVTVSSGGGGSGGGGSGGGGSQTVVTQEPSLTVSPGGTVTLTCRSSTGAVTTSNYANWVQQKPGQAPRGLIGGTNKRAPGVPARFSGSLLGGKAALTLSGVQPEDEAEYYCALWYSNLWVFGGGTKVEIKGGGGSDKTHTCPPCPAPPVAGPSVFLFPPKPKDTLMISRTPEVTCVVVAVSHEDPEVQFNWYVDGVEVHNAKTKPREEQFNSTFRVVSVLTVVHQDWLNGKEYKCKVSNKGLPAPIEKTISKTKGQPREPQVCTLPPSRDELTKNQVSLSCAVKGFYPSDIAVEWESNGQPENNYKTTPPVLDSDGSFFLVSKLTVDKSRWQQGNVFSCSVMHEALHNHYTQKSLSLSPGK
heavy: EVKLDETGGGLVQPGRPMKLSCVASGFTFSDYWMNWVRQSPEKGLEWVAQIRNKPYNYETYYSDSVKGRFTISRDDSKSSVYLQMNNLRVEDMGIYYCTGSYYGMDYWGQGTSVTVSSASTKGPSVFPLAPSSKSTSGGTAALGCLVKDYFPEPVTVSWNSGALTSGVHTFPAVLQSSGLYSLSSVVTVPSSSLGTQTYICNVNHKPSNTKVDKKVEPKSCDKTHTCPPCPAPPVAGPSVFLFPPKPKDTLMISRTPEVTCVVVAVSHEDPEVQFNWYVDGVEVHNAKTKPREEQFNSTFRVVSVLTVVHQDWLNGKEYKCKVSNKGLPAPIEKTISKTKGQPREPQVYTLPPCRDELTKNQVSLWCLVKGFYPSDIAVEWESNGQPENNYKTTPPVLDSDGSFFLYSKLTVDKSRWQQGNVFSCSVMHEALHNHYTQKSLSLSPGK
light: DVVMTQTPLSLPVSLGDQASISCRSSQSLVHSNGNTYLRWYLQKPGQSPKVLIYKVSNRFSGVPDRFSGSGSGTDFTLKISRVEAEDLGVYFCSQSTHVPWTFGGGTKLEIKRTVAAPSVFIFPPSDEQLKSGTASVVCLLNNFYPREAKVQWKVDNALQSGNSQESVTEQDSKDSTYSLSSTLTLSKADYEKHKVYACEVTHQGLSSPVTKSFNRGEC
notes: structure 1 isotype control; CH2 DG2CH2; also called MlIC-DG2-1
B2: PDL1-M1-G2 (bispecific antibody)
chain: B1 chain with G250R, G252R, A298D
heavy: not shown
light: not shown
notes: structure 1; PD-L1 x CD3; CH2 G2CH2
B3: M1IC-GG2-1 (bispecific antibody, human IgG1, kappa)
chain: B1 chain with C263G, A298D
heavy: B1 heavy with C230G, A265D
light: B1 light
notes: structure 1 isotype control; CH2 GG2CH2
B4: M1IC-PG2-1 (bispecific antibody, human IgG1, kappa)
chain: B1 chain with C263P, A298D
heavy: B1 heavy with C230P, A265D
light: B1 light
notes: structure 1 isotype control; CH2 PG2CH2
B5: M1IC-DG2D-1 (bispecific antibody, human IgG1, kappa)
chain: B1 chain with D303A
heavy: B1 heavy with D270A
light: B1 light
notes: structure 1 isotype control; CH2 DG2DCH2
B6: M1IC-SG2-1 (bispecific antibody, human IgG1, kappa)
chain: B1 chain with C263S, A298D
heavy: B1 heavy with C230S, A265D
light: B1 light
notes: structure 1 isotype control; CH2 SG2CH2
B7: PDL1-M1-SG2 (bispecific antibody)
chain: B1 chain with G250R, G252R, C263S, A298D
heavy: not shown
light: not shown
notes: structure 1; PD-L1 x CD3; CH2 SG2CH2
B8: M1IC-G2D-1 (bispecific antibody, human IgG1, kappa)
chain: B1 chain with A298D, D303A
heavy: B1 heavy with A265D, D270A
light: B1 light
notes: structure 1 isotype control; CH2 G2DCH2
B9: PDL1-M1-FES (bispecific antibody)
chain: QVQLVESGGGVVQPGRSLRLSCAASGFTFSTYAMNWVRQAPGKGLEWVARIRSKYNNYATYYADSVKDRFTISRDDSKNTLYLQMNSLRAEDTAVYYCARHGNFGNSYVSWFAYWGQGTLVTVSSGGGGSGGGGSGGGGSQTVVTQEPSLTVSPGGTVTLTCRSSTGAVTTSNYANWVQQKPGQAPRGLIGGTNKRAPGVPARFSGSLLGGKAALTLSGVQPEDEAEYYCALWYSNLWVFGGGTKVEIKRGRGSDKTHTCPPCPAPEFEGGPSVFLFPPKPKDTLMISRTPEVTCVVVDVSHEDPEVKFNWYVDGVEVHNAKTKPREEQYNSTYRVVSVLTVLHQDWLNGKEYKCKVSNKALPASIEKTISKAKGQPREPQVCTLPPSRDELTKNQVSLSCAVKGFYPSDIAVEWESNGQPENNYKTTPPVLDSDGSFFLVSKLTVDKSRWQQGNVFSCSVMHEALHNHYTQKSLSLSPGK
heavy: not shown
light: not shown
notes: structure 1; PD-L1 x CD3; CH2 FES
B10: PDL1-M1-LALA (bispecific antibody)
chain: B9 chain with F268A, E269A, S365P
heavy: not shown
light: not shown
notes: structure 1; PD-L1 x CD3; CH2 LALA
B11: CEA-M3-G2 (bispecific antibody)
chain 1: QVQLVQSGSELKKPGASVKVSCKASGYTFTVFGMNWVRQAPGQGLEWMGWINTKTGEATYVEEFKGRFVFSLDTSVSTAYLQISSLKADDTAVYYCARWDFYDYVEAMDYWGQGTTVTVSSASTKGPSVFPLAPSSKSTSGGTAALGCLVKDYFPEPVTVSWNSGALTSGVHTFPAVLQSSGLYSLSSVVTVPSSSLGTQTYICNVNHKPSNTKVDKKVEPKSCGGGGSGGGGSQVQLVESGGGVVQPGRSLRLSCAASGFTFSTYAMNWVRQAPGKGLEWVARIRSKYNNYATYYADSVKDRFTISRDDSKNTLYLQMNSLRAEDTAVYYCARHGNFGNSYVSWFAYWGQGTLVTVSSASVAAPSVFIFPPSDEQLKSGTASVVCLLNNFYPREAKVQWKVDNALQSGNSQESVTEQDSKDSTYSLSSTLTLSKADYEKHKVYACEVTHQGLSSPVTKSFNRGECDKTHTCPPCPAPPVAGPSVFLFPPKPKDTLMISRTPEVTCVVVDVSHEDPEVQFNWYVDGVEVHNAKTKPREEQFNSTFRVVSVLTVVHQDWLNGKEYKCKVSNKGLPAPIEKTISKTKGQPREPQVYTLPPCRDELTKNQVSLWCLVKGFYPSDIAVEWESNGQPENNYKTTPPVLDSDGSFFLYSKLTVDKSRWQQGNVFSCSVMHEALHNHYTQKSLSLSPGK
chain 2: QTVVTQEPSLTVSPGGTVTLTCRSSTGAVTTSNYANWVQQKPGQAPRGLIGGTNKRAPGVPARFSGSLLGGKAALTLSGVQPEDEAEYYCALWYSNLWVFGGGTKVEIKSSASTKGPSVFPLAPSSKSTSGGTAALGCLVKDYFPEPVTVSWNSGALTSGVHTFPAVLQSSGLYSLSSVVTVPSSSLGTQTYICNVNHKPSNTKVDKKVEPKSC
heavy: QVQLVQSGSELKKPGASVKVSCKASGYTFTVFGMNWVRQAPGQGLEWMGWINTKTGEATYVEEFKGRFVFSLDTSVSTAYLQISSLKADDTAVYYCARWDFYDYVEAMDYWGQGTTVTVSSASTKGPSVFPLAPSSKSTSGGTAALGCLVKDYFPEPVTVSWNSGALTSGVHTFPAVLQSSGLYSLSSVVTVPSSSLGTQTYICNVNHKPSNTKVDKKVEPKSCDKTHTCPPCPAPPVAGPSVFLFPPKPKDTLMISRTPEVTCVVVDVSHEDPEVQFNWYVDGVEVHNAKTKPREEQFNSTFRVVSVLTVVHQDWLNGKEYKCKVSNKGLPAPIEKTISKTKGQPREPQVCTLPPSRDELTKNQVSLSCAVKGFYPSDIAVEWESNGQPENNYKTTPPVLDSDGSFFLVSKLTVDKSRWQQGNVFSCSVMHEALHNRFTQKSLSLSPGK
light: DIQMTQSPSSLSASVGDRVTITCKASQNVGTNVAWYQQKPGKAPKLLIYSASYRYSGVPSRFSGSGSGTDFTFTISSLQPEDIATYYCHQYYTYPLFTFGQGTKVEIKRTVAAPSVFIFPPSDEQLKSGTASVVCLLNNFYPREAKVQWKVDNALQSGNSQESVTEQDSKDSTYSLSSTLTLSKADYEKHKVYACEVTHQGLSSPVTKSFNRGEC
notes: structure 3; CEA x CD3; CH2 G2CH2

The first test addresses T2, Human CD3ε (human, UniProt P07766 23-126).
T2 construct: CD3 on T cells isolated from human whole blood
As to the kind of experiment: flow cytometry, human T cells. The source says: (§1) 1) Cell preparation: T cells isolated from CD3-positive human whole blood were used for a CD3 end affinity detection of multifunctional antibody molecule; positive tumor cells of corresponding antigen were used for detecting affinity of tumor antigen; for example, CD38-positive MM. 1S cells (purchased from the Cell Resource Center of Shanghai Institutes for Biological Sciences, Chinese Academy of Sciences) or RPMI 8226 cells (purchased from the Cell Resource Center of Shanghai Institutes for Biological Sciences, Chinese Academy of Sciences) were used for CD38 antigen detection, and PD-L1 positive H358 cells (purchased from the Cell Resource Center of Shanghai Institutes for Biological Sciences, Chinese Academy of Sciences) were used for PD-L1 antigen detection, and so on. The cells were resuspended with 1% FBS-PBS, adjusted to a density of 4×10⁶/ml, and 50 μl of cells were taken from each well, and then plated at 2×10⁵ per well. Cell plating was operated on ice
(§2) 2) Addition of the antibody: according to the experimental design, the antibody was diluted gradually, and dilution of antibody was operated on ice. For example, the initial concentration of antibody for dilution was 3000 nM, and the antibody was diluted by 3 times with 11 concentration gradients. The diluted antibody was added to a cell well at 50 μl per well, mixed well, and shaked and incubated at 4° C. 1100 rpm/min for 2 h; after washing, the cells were resuspend in 1% FBS-PBS, and a diluted secondary antibody PE anti-human IgG FC (Biolegend, 409304) was added with a final concentration of 8 ug/ml and a volume of 50 μl/well. At the same time, a well only added with cells and secondary antibody was set as a control, the components were mixed well, and incubated under shaking at 1100 rpm/min at 4° C. for 1 h;
(§3) 5) Data analysis: the data was analyzed by a flow analysis software FlowJo 7.6 thereby obtaining an average fluorescence intensity of the specific antibody concentration, plotted by a Graphpad Prism 5 with the antibody concentration (nM) as an abscissa and the average fluorescence intensity as an ordinate; the EC50 value was calculated by the method of One site—Specific binding, and the EC50 value indicated the cell affinity of the antibody to the corresponding target antigen.
For orientation: In flow cytometry, cells or beads pass a laser one at a time.
On to B1, for which the EC50 (commonly the concentration needed to bring the measured effect to its halfway point) was 120 nM.
For the molecule B2, the EC50 is 191 nM.
The same measure, in the same setting: the same measure for B3: 168 nM.
B4: it took 116 nM to reach a half-maximal effect (EC50).
For B5, the EC50 turned out to be 128 nM.
On the same count and under the same terms, the same measure for B6: 122 nM; for B7: 177 nM; for B8: 101 nM.
The same measure, in the same setting: with B9 the figure was 200 nM; with B10, 153 nM.
Still for that read-out and setting: with B11 the figure was 638 nM.

The target in a further test is T1, human CEA. As to the kind of experiment: flow cytometry, human tumor cells (CEA+).
Excerpt: as §1, §2, §3
Take B11: the EC50 came to 36.3 nM.

In a further test the target is T3, Monkey CD3 (monkey).
T3 construct: whole, on cells; also called CD3 of monkey CD3 positive T cells
The test is described as follows: flow cytometry, monkey T cells.
B1 had an EC50 of 130 nM.
B2 gave an EC50 of 239 nM.
With B3, the response was half-maximal at 166 nM (EC50).
As for B4, the EC50 was found to be 146 nM.
Same read-out and setting: with B5 the figure was 181 nM; with B6, 222 nM.
Still for that read-out and setting: with B7 the figure was 194 nM; with B8, 143 nM; with B9, 207 nM.
Same read-out and setting: the same measure for B10: 196 nM.
